From patent publication US20130102009A1, “SIRTUIN ACTIVATORS AND ACTIVATION ASSAYS” (priority 2010, published 2013)

Legend:
Assay in all cases: Steady-state kinetic parameters for SIRT1 substrates (PNC1-GDH-coupled assay)
Assay type in all cases: biochemical, human
Conditions in all cases: other: 25° C., pH 7.5, [NAD+]o = 2 mM, [SIRT1]o 50-1,000 nM
[1] = substrate: CC(=O)NCCCC[C@H](NC(=O)[C@H](CCCCN)NC(=O)[C@H](Cc1c[nH]cn1)NC(=O)[C@H](CCCNC(=N)N)NC(C)=O)C(=O)N[C@@H](C)C(N)=O
Procedure: (§1) All peptides were prepared by BioPeptide (San Diego, Calif.) and shown to be at least 95% pure by analytical HPLC analysis. Bovine glutamate dehydrogenase (GDH), α-ketoglutarate, NADH and NAD^+ were from Sigma Chemical Company. Full-length, human SIRT1 and the truncated version used for biophysical studies SIRT1(183-664) were prepared as described previously, and shown to have equivalent kinetic properties (Milne et al. (2007) Nature 450, 712-716). The nicotinamidase PNC1 was prepared as described by Denu and colleagues (Smith et al. (2009) Anal Biochem 394, 101-109).
(§2) To determine the interaction of STACs with SIRT1 two kinetic methods were employed. One, which was used for TAMRA-peptide, desTAMRA-peptide, des(biotin,TAMRA)-peptide, and p53-20 mer, used a previously described mass spectroscopic method for detection of peptide reaction products (Milne et al. (2007) Nature 450, 712-716). The other, used with peptides of general structure Ac-Arg-His-Lys-Lys^Ac-X, used a continuous, enzyme-coupled method reported previously (Smith et al. (2009) Anal Biochem 394, 101-109), in which the SRT1 product nicotinamide is first converted into nicotinic acid and ammonia by the action of PNC1, and the ammonia then used by GDH to convert α-ketoglutarate into glutamate. This reaction occurs with oxidation of NADH to NAD^+ which is accompanied by a change in absorbance at 340 nm (Δε340=−6,200 M^−1 cm^−1).
(§3) The kinetic experiments used to characterize activators were run on a Perkin Elmer Lambda 25 spectrophotometer equipped with a water-jacketed, eight-cell changer maintained at 25° C. In a typical kinetic experiment, all components of the reaction solution except SIRT1 were added to a 1 mL cuvette and allowed to reach thermal equilibrium. Final concentrations of the coupling system components were: 1 μM PNC1, 0.23 mM NADH, 3.4 mM α-ketoglutarate, and 20 U/mL bovine GDH. This solution also contained peptide substrate, NAD^.0., and activator, at concentrations indicated in the text. The final DMSO concentration was kept constant at 1%, and the buffer used in these experiments was 50 mM HEPES, 150 mM NaCl, pH 7.5. While the system was reaching thermal equilibrium, the absorbance was monitored to provide an accurate estimate of the background rate, which was subtracted from the reaction rate after the addition of SIRT1.
(§4) The parameters reported in this table were all determined using the PNC1-GDH-coupled assay. Kinetic parameters for the four 20 mers were also estimated using the mass spectroscopy-based assay first described by Milne et al. ((2007) Nature 450, 712-716) and agree with those reported in Table 3.

[2] = substrate: CC(=O)NCCCC[C@H](NC(=O)[C@H](CCCCN)NC(=O)[C@H](Cc1c[nH]cn1)NC(=O)[C@H](CCCNC(=N)N)NC(C)=O)C(=O)N[C@@H](Cc1c[nH]c2ccccc12)C(N)=O
Procedure: as §1, §2, §3, §4

[3] = substrate: CC(=O)NCCCC[C@H](NC(=O)[C@H](CCCCN)NC(=O)[C@H](Cc1c[nH]cn1)NC(=O)[C@H](CCCNC(=N)N)NC(C)=O)C(=O)N[C@@H](Cc1ccccc1)C(N)=O
Procedure: as §1, §2, §3, §4

[4] = substrate: CC(=O)NCCCC[C@H](NC(=O)[C@H](CCCCN)NC(=O)[C@H](Cc1c[nH]cn1)NC(=O)[C@H](CCCNC(=N)N)NC(C)=O)C(=O)Nc1ccc2c(C)cc(=O)oc2c1
Procedure: as §1, §2, §3, §4

[5] = substrate: CC(=O)NCCCC[C@H](NC(=O)[C@H](CCCCN)NC(=O)[C@H](Cc1c[nH]cn1)NC(=O)[C@H](CCCNC(=N)N)NC(C)=O)C(N)=O
Procedure: as §1, §2, §3, §4

[6] = substrate: CCCC[C@H](NC(=O)[C@H](CCCCNC(C)=O)NC(=O)[C@H](CO)NC(=O)[C@H](Cc1c[nH]cn1)NC(=O)[C@H](CO)NC(=O)[C@H](CO)NC(=O)[C@@H](NC(=O)[C@H](CO)NC(=O)[C@H](CCC(N)=O)NC(=O)CNC(=O)[C@H](CCCCNC(=O)CCCC[C@@H]1SC[C@@H]2NC(=O)N[C@@H]21)NC(=O)[C@H](CCC(=O)O)NC(=O)[C@H](CCC(=O)O)NC(C)=O)[C@@H](C)O)C(=O)N[C@@H](CO)C(=O)N[C@H](C(=O)N[C@@H](CCC(=O)O)C(=O)NCC(=O)N[C@@H](CCCCN)C(=O)N[C@@H](CCC(=O)O)C(=O)N[C@@H](CCC(=O)O)C(N)=O)[C@@H](C)O
Procedure: as §1, §2, §3, §4

B1: SIRT1 (Homo sapiens) (protein)
chain: MADEAALALQPGGSPSAAGADREAASSPAGEPLRKRPRRDGPGLERSPGEPGGAAPEREVPAAARGCPGAAAAALWREAEAEAAAAGGEQEAQATAAAGEGDNGPGLQGPSREPPLADNLYDEDDDDEGEEEEEAAAAAIGYRDNLLFGDEIITNGFHSCESDEEDRASHASSSDWTPRPRIGPYTFVQQHLMIGTDPRTILKDLLPETIPPPELDDMTLWQIVINILSEPPKRKKRKDINTIEDAVKLLQECKKIIVLTGAGVSVSCGIPDFRSRDGIYARLAVDFPDLPDPQAMFDIEYFRKDPRPFFKFAKEIYPGQFQPSLCHKFIALSDKEGKLLRNYTQNIDTLEQVAGIQRIIQCHGSFATASCLICKYKVDCEAVRGDIFNQVVPRCPRCPADEPLAIMKPEIVFFGENLPEQFHRAMKYDKDEVDLLIVIGSSLKVRPVALIPSSIPHEVPQILINREPLPHLHFDVELLGDCDVIINELCHRLGGEYAKLCCNPVKLSEITEKPPRTQKELAYLSELPPTPLHVSEDSSSPERTSPPDSSVIVTLLDQAAKSNDDLDVSESKGCMEEKPQEVQTSRNVESIAEQMENPDLKNVGSSTGEKNERTSVAGTVRKCWPNRVAKEQISRRLDGNQYLFLPPNRYIFHGAEVYSDSEDDVLSSSSCGSNSDSGTCQSPSLEEPMEDESEIEEFYNGLEDEPDVPERAGGAGFGTDGDDQEAINEAISVKQEVTDMNYPSNKS
[1]
  Km: 13 µM
[2]
  Km: 4.0 µM
[3]
  Km: 7.1 µM
[4]
  Km: 110 µM
[5]
  Km: 23 µM
[6]
  Km: 33 µM
